From patent US20240002531A1 (ONO PHARMACEUTICAL, published 2024)
Read-outs that look alike come from different tables or passages of the source.

Columns and labels:
Test in all cases: SPR Biacore, mAb on chip, peptide analyte, 1:1 fit
[1] = molecular target: T1, HER2 peptide p603-622 (amino acids 603 to 622 of human HER2) (human)
T1 construct: Synthetic peptide; also called wild-type HER2 peptide
T1 peptide: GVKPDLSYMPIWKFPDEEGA

HER2 peptide p614-622 = molecular target: T2, HER2 peptide p614-622 (human)
T2 peptide: WKFPDEEGA

HER2 peptide p613-618 = molecular target: T3, HER2 peptide p613-618 (human)
T3 peptide: IWKFPD

HER2 peptide p613-620 = molecular target: T4, HER2 peptide p613-620 (human)
T4 peptide: IWKFPDEE

HER2 peptide p613-621 = molecular target: T5, HER2 peptide p613-621 (human)
T5 peptide: IWKFPDEEG

HER2 peptide p613-622 = molecular target: T6, HER2 peptide p613-622 (human)
T6 peptide: IWKFPDEEGA

HER2 peptide p612-619 = molecular target: T7, HER2 peptide p612-619 (human)
T7 peptide: PIWKFPDE

HER2 peptide p612-621 = molecular target: T8, HER2 peptide p612-621 (human)
T8 peptide: PIWKFPDEEG

HER2 peptide p612-622 = molecular target: T9, HER2 peptide p612-622 (human)
T9 peptide: PIWKFPDEEGA

HER2 peptide p611-620 = molecular target: T10, HER2 peptide p611-620 (human)
T10 peptide: MPIWKFPDEE

HER2 peptide p611-621 = molecular target: T11, HER2 peptide p611-621 (human)
T11 peptide: MPIWKFPDEEG

HER2 peptide p611-622 = molecular target: T12, HER2 peptide p611-622 (human)
T12 peptide: MPIWKFPDEEGA

HER2 peptide p610-620 = molecular target: T13, HER2 peptide p610-620 (human)
T13 peptide: YMPIWKFPDEE

HER2 peptide p610-621 = molecular target: T14, HER2 peptide p610-621 (human)
T14 peptide: YMPIWKFPDEEG

HER2 peptide p609-618 = molecular target: T15, HER2 peptide p609-618 (human)
T15 peptide: SYMPIWKFPD

HER2 peptide p609-620 = molecular target: T16, HER2 peptide p609-620 (human)
T16 peptide: SYMPIWKFPDEE

[2] = molecular target: T1, HER2 peptide p603-622 (amino acids 603 …)
[3] = molecular target: T17, G603A peptide (HER2 603-622 with G603A) (human)
T17 peptide: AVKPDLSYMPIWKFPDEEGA

[4] = molecular target: T18, K605A peptide (HER2 603-622 with K605A) (human)
T18 peptide: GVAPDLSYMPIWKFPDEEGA

[5] = molecular target: T19, L608A peptide (HER2 603-622 with L608A) (human)
T19 peptide: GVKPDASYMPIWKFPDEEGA

[6] = molecular target: T20, Y610A peptide (HER2 603-622 with Y610A) (human)
T20 peptide: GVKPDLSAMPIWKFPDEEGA

[7] = molecular target: T21, D618A peptide (HER2 603-622 with D618A) (human)
T21 peptide: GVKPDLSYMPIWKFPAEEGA

[8] = molecular target: T22, E619A peptide (HER2 603-622 with E619A) (human)
T22 peptide: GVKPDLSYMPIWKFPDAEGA

[9] = molecular target: T23, A622G peptide (HER2 603-622 with A622G) (human)
T23 peptide: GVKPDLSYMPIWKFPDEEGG

B1: H2Mab-250 antibody (antibody, V domains shown)
VH: EVQLVESGGGLVQPGGSLKLSCAASGFTFSNYGMSWVRQTPDRRLELVATINNNGGGTYYPDSVKGRFTISRDNAKNTLYLQMSSLKSEDTAMYYCTSPGLLWDAWGAGTTVTVSS
VL: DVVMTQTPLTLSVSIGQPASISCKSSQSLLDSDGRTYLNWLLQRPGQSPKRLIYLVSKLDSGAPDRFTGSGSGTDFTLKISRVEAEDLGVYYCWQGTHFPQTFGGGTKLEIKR
notes: Mouse monoclonal from a hybridoma (immunogen HER2ec made in LN229 cells); also called antibody of the present invention
- Kd [1]: 3.67 nM
- koff [1]: 0.00033 s⁻¹
- kon [1]: 90100 M⁻¹ s⁻¹
- Kd (HER2 peptide p614-622): 2910 nM
- koff (HER2 peptide p614-622): 0.00145 s⁻¹
- kon (HER2 peptide p614-622): 498 M⁻¹ s⁻¹
- Kd (HER2 peptide p613-618): 4.45 nM
- koff (HER2 peptide p613-618): 0.00289 s⁻¹
- kon (HER2 peptide p613-618): 649000 M⁻¹ s⁻¹
- Kd (HER2 peptide p613-620): 13.1 nM
- koff (HER2 peptide p613-620): 0.00371 s⁻¹
- kon (HER2 peptide p613-620): 283000 M⁻¹ s⁻¹
- Kd (HER2 peptide p613-621): 10.5 nM
- koff (HER2 peptide p613-621): 0.00343 s⁻¹
- kon (HER2 peptide p613-621): 325000 M⁻¹ s⁻¹
- Kd (HER2 peptide p613-622): 14 nM
- koff (HER2 peptide p613-622): 0.00346 s⁻¹
- kon (HER2 peptide p613-622): 247000 M⁻¹ s⁻¹
- Kd (HER2 peptide p612-619): 3.36 nM
- koff (HER2 peptide p612-619): 0.000841 s⁻¹
- kon (HER2 peptide p612-619): 250000 M⁻¹ s⁻¹
- Kd (HER2 peptide p612-621): 3.49 nM
- koff (HER2 peptide p612-621): 0.000683 s⁻¹
- kon (HER2 peptide p612-621): 196000 M⁻¹ s⁻¹
- Kd (HER2 peptide p612-622): 3.74 nM
- koff (HER2 peptide p612-622): 0.000724 s⁻¹
- kon (HER2 peptide p612-622): 194000 M⁻¹ s⁻¹
- Kd (HER2 peptide p611-620): 2.65 nM
- koff (HER2 peptide p611-620): 0.000387 s⁻¹
- kon (HER2 peptide p611-620): 146000 M⁻¹ s⁻¹
- Kd (HER2 peptide p611-621): 1.89 nM
- koff (HER2 peptide p611-621): 0.000411 s⁻¹
- kon (HER2 peptide p611-621): 218000 M⁻¹ s⁻¹
- Kd (HER2 peptide p611-622): 2.02 nM
- koff (HER2 peptide p611-622): 0.000378 s⁻¹
- kon (HER2 peptide p611-622): 187000 M⁻¹ s⁻¹
- Kd (HER2 peptide p610-620): 1.32 nM
- koff (HER2 peptide p610-620): 0.000342 s⁻¹
- kon (HER2 peptide p610-620): 260000 M⁻¹ s⁻¹
- Kd (HER2 peptide p610-621): 1.36 nM
- koff (HER2 peptide p610-621): 0.000347 s⁻¹
- kon (HER2 peptide p610-621): 256000 M⁻¹ s⁻¹
- Kd (HER2 peptide p609-618): 0.803 nM
- koff (HER2 peptide p609-618): 0.00021 s⁻¹
- kon (HER2 peptide p609-618): 262000 M⁻¹ s⁻¹
- Kd (HER2 peptide p609-620): 1.24 nM
- koff (HER2 peptide p609-620): 0.000291 s⁻¹
- kon (HER2 peptide p609-620): 234000 M⁻¹ s⁻¹

B2: H2Mab-214 antibody (antibody, V domains shown)
VH: QVTLKESGPGILQPSQTLSLTCSFSGFSLSTSGMGVSWIRQPSGKGLEWLAHIFWDDDKRYNPSLKSRLTISKDTSRNKVFLKITSVDTADTATYYCARRVVATDWYFDVWGAGTTVTVSS
VL: DIVLTQSPASLAVSLGQRATISCRASESVEYYGTTLMQWYQQKPGQPPKLLIYAASKVESGVPARFSGSGSGTDFSLNIHPVEEDDVAMYFCQQSRKVPLTFGAGTKLELKR
notes: as for B1
- Kd [2]: 22.8 nM
- koff [2]: 0.00543 s⁻¹
- kon [2]: 238000 M⁻¹ s⁻¹
- Kd [3]: 16.9 nM
- koff [3]: 0.00564 s⁻¹
- kon [3]: 335000 M⁻¹ s⁻¹
- Kd [4]: 26.5 nM
- koff [4]: 0.00643 s⁻¹
- kon [4]: 243000 M⁻¹ s⁻¹
- Kd [5]: 48.7 nM
- koff [5]: 0.00739 s⁻¹
- kon [5]: 152000 M⁻¹ s⁻¹
- Kd [6]: 26.7 nM
- koff [6]: 0.00603 s⁻¹
- kon [6]: 226000 M⁻¹ s⁻¹
- Kd [7]: 49.1 nM
- koff [7]: 0.0125 s⁻¹
- kon [7]: 254000 M⁻¹ s⁻¹
- Kd [8]: 66.2 nM
- koff [8]: 0.0111 s⁻¹
- kon [8]: 168000 M⁻¹ s⁻¹
- Kd [9]: 15.5 nM
- koff [9]: 0.00567 s⁻¹
- kon [9]: 366000 M⁻¹ s⁻¹
